Source: paper PMC5340040
No end group written: not given here.

How the values were obtained:
[1] = target: T1, CaATP-G-actin (rabbit skeletal muscle actin, monomer) (rabbit), P68135; experiment: cross-linking; competition: 6 μM Fl-LL-37 and 0-16 μM histatin-3 or histatin-5 for transglutaminase cross-linking to 4 μM CaATP-G-actin, 22 °C; SDS-PAGE visualized by fluorescence; details: remark: other sources report otherwise
[2] = target: T1, CaATP-G-actin (rabbit skeletal muscle …); experiment: cross-linking; bacterial transglutaminase (0.3-0.4 mg/ml) at 22 °C, 4 μM CaATP-G-actin or TG-G-actin with 4-8 μM peptide, 1 to 30 min, stopped by 1 mM cysteamine; 12% SDS-PAGE, Coomassie blue or fluorescence, densitometry; one series with 0-200 mM NaCl (1 min); details: remark: other sources report otherwise

percent decrease of the cross-linking of 6 μM Fl-LL-37 to 4 μM G-actin at 3 μM histatin [1] [%] | percent decrease of the extent of cross-linking with 200 mM NaCl [2] [%] | Binder
68 |  | DSHAKRHHGYKRKFHEKHHSHRGY [Histatin-5]
 | > 70 | DSHAKRHHGYKRKFHEKHHSHRGY (also: FAM label, position not given here) [FAM labeled histatin-5]
